Experimental data as given in PMC13397619.

B1: NLV2 TCR alpha chain (CDR3α only) (parent)
chain: AGPMKTSYDKVI

Variants of: B1
Assay: T-Switch: Jurkat TCRβ−/− cells expressing a CDR3 saturation-mutagenesis library, stained with two peptide-HLA-A*02:01 tetramers (original and novel peptide) plus anti-CD3, FACS-sorted into four gates, gDNA sequenced
Conditions: tetramers 1 µg/mL, 30 min on ice, SP, DP and SW gates expanded about 10 days between rounds ('two to three rounds of selection' in the Methods), unresolved parent, parent is a CDR3 fragment, scale: fold enrichment, numbering: sequential-on-construct, sequence starts at 1
[1] = with both tetramers (double-negative gate, binds neither): HLA-A*02:01 with … and with …, gate DN: OPPOSITE: higher = more of the variant in the gate that binds neither peptide = LESS binding (or no expression; inferred). Fold enrichment of the CDR3 variant in one FACS gate of a two-tetram
[2] = with both tetramers (double-positive gate): HLA-A*02:01 with … and with …, gate DP: higher = more of the variant in the gate that binds both peptides. Fold enrichment of the CDR3 variant in one FACS gate of a two-tetramer stain. SP/DP/SW gates were expanded and re-sorted bef

Variant	enrichment [1]	enrichment [2]
[…] (CDR3 as printed); K10M derived by comparing it with the table's wild-type CDR3 AGPMKTSYDKVI	1.08	0
[…] (CDR3 as printed); A1P derived by comparing it with the table's wild-type CDR3 AGPMKTSYDKVI	0.883	0
[…] (CDR3 as printed); Y8E derived by comparing it with the table's wild-type CDR3 AGPMKTSYDKVI	0.485	3.54
[…] (CDR3 as printed); P3T derived by comparing it with the table's wild-type CDR3 AGPMKTSYDKVI	0.962	0
[…] (CDR3 as printed); D9K derived by comparing it with the table's wild-type CDR3 AGPMKTSYDKVI	0.961	0
[…] (CDR3 as printed); K5S derived by comparing it with the table's wild-type CDR3 AGPMKTSYDKVI	0.492	0
[…] (CDR3 as printed); Y8N derived by comparing it with the table's wild-type CDR3 AGPMKTSYDKVI	0.932	0
[…] (CDR3 as printed); K5V derived by comparing it with the table's wild-type CDR3 AGPMKTSYDKVI	0.87	0
[…] (CDR3 as printed); K5W derived by comparing it with the table's wild-type CDR3 AGPMKTSYDKVI	0.659	0
[…] (CDR3 as printed); S7P derived by comparing it with the table's wild-type CDR3 AGPMKTSYDKVI	0.995	0
[…] (CDR3 as printed); K5T derived by comparing it with the table's wild-type CDR3 AGPMKTSYDKVI	0.493	0.931
[…] (CDR3 as printed); D9V derived by comparing it with the table's wild-type CDR3 AGPMKTSYDKVI	0.959	0
[…] (CDR3 as printed); V11H derived by comparing it with the table's wild-type CDR3 AGPMKTSYDKVI	0.891	0
[…] (CDR3 as printed); K5Y derived by comparing it with the table's wild-type CDR3 AGPMKTSYDKVI	0.737	0
[…] (CDR3 as printed); G2T derived by comparing it with the table's wild-type CDR3 AGPMKTSYDKVI	0.533	0
[…] (CDR3 as printed); V11L derived by comparing it with the table's wild-type CDR3 AGPMKTSYDKVI	0.656	0
[…] (CDR3 as printed); K10A derived by comparing it with the table's wild-type CDR3 AGPMKTSYDKVI	0.862	0
[…] (CDR3 as printed); M4A derived by comparing it with the table's wild-type CDR3 AGPMKTSYDKVI	0.697	0
[…] (CDR3 as printed); D9C derived by comparing it with the table's wild-type CDR3 AGPMKTSYDKVI	0.717	0

Variant	enrichment [1]	enrichment [2]
[…] (CDR3 as printed); D9F derived by comparing it with the table's wild-type CDR3 AGPMKTSYDKVI	1.2	0
[…] (CDR3 as printed); K10I derived by comparing it with the table's wild-type CDR3 AGPMKTSYDKVI	1.1	0
[…] (CDR3 as printed); V11D derived by comparing it with the table's wild-type CDR3 AGPMKTSYDKVI	0.904	0
[…] (CDR3 as printed); M4S derived by comparing it with the table's wild-type CDR3 AGPMKTSYDKVI	0.52	0
[…] (CDR3 as printed); T6H derived by comparing it with the table's wild-type CDR3 AGPMKTSYDKVI	1.22	0
[…] (CDR3 as printed); K10L derived by comparing it with the table's wild-type CDR3 AGPMKTSYDKVI	1.05	0
[…] (CDR3 as printed); Y8P derived by comparing it with the table's wild-type CDR3 AGPMKTSYDKVI	1.08	0
[…] (CDR3 as printed); I12F derived by comparing it with the table's wild-type CDR3 AGPMKTSYDKVI	1.16	0
[…] (CDR3 as printed); D9G derived by comparing it with the table's wild-type CDR3 AGPMKTSYDKVI	1.23	0
[…] (CDR3 as printed); P3K derived by comparing it with the table's wild-type CDR3 AGPMKTSYDKVI	1.01	0
[…] (CDR3 as printed); V11T derived by comparing it with the table's wild-type CDR3 AGPMKTSYDKVI	1.12	0
[…] (CDR3 as printed); S7R derived by comparing it with the table's wild-type CDR3 AGPMKTSYDKVI	0.927	0
[…] (CDR3 as printed); P3V derived by comparing it with the table's wild-type CDR3 AGPMKTSYDKVI	1.02	0
[…] (CDR3 as printed); V11A derived by comparing it with the table's wild-type CDR3 AGPMKTSYDKVI	1.13	0
[…] (CDR3 as printed); Y8K derived by comparing it with the table's wild-type CDR3 AGPMKTSYDKVI	0.928	0
[…] (CDR3 as printed); P3S derived by comparing it with the table's wild-type CDR3 AGPMKTSYDKVI	1.18	0
[…] (CDR3 as printed); M4V derived by comparing it with the table's wild-type CDR3 AGPMKTSYDKVI	0.322	0
[…] (CDR3 as printed); T6F derived by comparing it with the table's wild-type CDR3 AGPMKTSYDKVI	1.26	0
[…] (CDR3 as printed); M4F derived by comparing it with the table's wild-type CDR3 AGPMKTSYDKVI	1.34	0

Variant	enrichment [1]	enrichment [2]
[…] (CDR3 as printed); P3Y derived by comparing it with the table's wild-type CDR3 AGPMKTSYDKVI	1.08	0
[…] (CDR3 as printed); I12M derived by comparing it with the table's wild-type CDR3 AGPMKTSYDKVI	0.63	0
[…] (CDR3 as printed); S7W derived by comparing it with the table's wild-type CDR3 AGPMKTSYDKVI	0.807	0
[…] (CDR3 as printed); A1T derived by comparing it with the table's wild-type CDR3 AGPMKTSYDKVI	0.871	0
[…] (CDR3 as printed); K10G derived by comparing it with the table's wild-type CDR3 AGPMKTSYDKVI	1	0
[…] (CDR3 as printed); M4P derived by comparing it with the table's wild-type CDR3 AGPMKTSYDKVI	1	0
[…] (CDR3 as printed); G2C derived by comparing it with the table's wild-type CDR3 AGPMKTSYDKVI	0.956	0
[…] (CDR3 as printed); I12S derived by comparing it with the table's wild-type CDR3 AGPMKTSYDKVI	0.885	0
[…] (CDR3 as printed); V11E derived by comparing it with the table's wild-type CDR3 AGPMKTSYDKVI	1.34	0
[…] (CDR3 as printed); P3D derived by comparing it with the table's wild-type CDR3 AGPMKTSYDKVI	1.14	0
[…] (CDR3 as printed); S7M derived by comparing it with the table's wild-type CDR3 AGPMKTSYDKVI	1.3	0
[…] (CDR3 as printed); Y8T derived by comparing it with the table's wild-type CDR3 AGPMKTSYDKVI	1.15	0
[…] (CDR3 as printed); D9T derived by comparing it with the table's wild-type CDR3 AGPMKTSYDKVI	0.889	0
[…] (CDR3 as printed); I12W derived by comparing it with the table's wild-type CDR3 AGPMKTSYDKVI	0.924	0
[…] (CDR3 as printed); T6K derived by comparing it with the table's wild-type CDR3 AGPMKTSYDKVI	1.04	0
[…] (CDR3 as printed); I12R derived by comparing it with the table's wild-type CDR3 AGPMKTSYDKVI	1.1	0
[…] (CDR3 as printed); K5I derived by comparing it with the table's wild-type CDR3 AGPMKTSYDKVI	1.56	0
[…] (CDR3 as printed); S7D derived by comparing it with the table's wild-type CDR3 AGPMKTSYDKVI	0.804	0
[…] (CDR3 as printed); G2W derived by comparing it with the table's wild-type CDR3 AGPMKTSYDKVI	1.05	0
